# Laboratory results taken from US20140287419A1, “Compositions Having Dicamba Decarboxylase Activity and Methods of Use” (priority 2013, published 2014).
# Columns and labels:
# [1] = Enzyme kinetic characterization (kcat, KM, kcat/KM) by PEPC/MDH coupled enzyme assay or GC/MS measurement of 2,5-DCP; details: FIG. 6
# [2] = Saturation mutagenesis of SEQ ID NO:109, dicamba decarboxylation activity of point mutants
molecule,measurement,setting,value
"N61A: point mutation N61A of SEQ ID NO:109 (protein, Dicamba decarboxylase variant clone DC.4.032) MAQGKVALEEHFAIPETLQDSAGFVPGDYWKELQHRLLDIQDTRLKLMDAHGIETMILSLAAPAVQAIPDRRKAIEIARRANDVLAEECAKRPDRFLAFAALPLQDPDAATEELQRCVNDLGFVGALVNGFSQEGDGQTPLYYDLPQYRPFWGEVEKLDVPFYLHPRNPLPQDSRIYDGHPWLLGPTWAFAQETAVHALRLMASGLFDEHPRLNIILGHMGEGLPYMMWRIDHRVAWVKLPPRYPAKRRFMDYFNENFHITTSGNFRTQTLIDAILEIGADRILFSTDWPFENIDHASDWFNATSIAEADRVKIGRTNARRLFKLDGA",KM compared with template SEQ ID NO:109,[1],unchanged
same,kcat compared with template SEQ ID NO:109,[1],17 fold
same,Average Activity (Fold of SEQ ID NO: 109),"[2]; dicamba decarboxylation activity of point mutants of SEQ ID NO: 109 (NNK saturation mutagenesis), relative to the unchanged template",2.9 Fold of SEQ ID NO: 109
same,Average Activity (Fold of SEQ ID NO: 109),"[2]; dicamba decarboxylation activity of single point mutants of SEQ ID NO:109, relative to unchanged template",2.9 Fold of SEQ ID NO: 109
